From US9988424 come the findings set out here.

Test [1] addresses 92TH023 V2 cyclic peptide (HIV-1). The test is described as follows: RPMI 8866 cell adhesion to coated peptide, mAb 10 ug/ml.
For test [2] the target is unchanged. The test is described as follows: RPMI 8866 cell adhesion to coated peptide, mAb 20 ug/ml.
The target of test [3] is V2 aa 168-182 peptide (HIV-1). The test is described as follows: ELISA on V2 peptide (FIG. 55A).
Test [4] concerns the target 92TH023 V2 cyclic peptide (HIV-1). The test is described as follows: RPMI 8866 cell adhesion to coated peptide, mAb 5 ug/ml.

B1: CH59 (antibody, V domains shown)
VH: EVQLVESGGGLVQPGRSLRLSCAASGFTFDDGAMHWVRQAPGKGLEWVSGISWNSNIIAYADSVKGRFTISRDNAKNSLYLEMNSLRVEDTALYYCAKDSPRGELPLNYWGQGTLVTVSS
VL: SYELTQPPSVSVSPGQTARITCSGDALPKNYAYWYQQKSGQAPVLVIYEDSKRPSGIPERFSGSSSGTMATLTISGAQVEDEADYYCYSTDSSGNHRVFGGGTKLTVL
In general, % inhibition refers to the relative decrease from the control value, in per cent. What is called EC50 is the concentration at which the effect is half-maximal. In the case of B1, the % inhibition in test [1] amounted to 36.7%; in test [2], 44.8%; in test [4] it was 19.4%. Moreover, the EC50 in test [3] stood at 3 ng/mL.

B2: 697D (antibody, V domains shown)
VH: QVQLVQSGAEVKKPGSSVKVSCKASGGNFNTYTISWVRQAPGQGLEWMGRIIPIFGIVNPAQKFPGRVTINVDKSTNTAYMELSSLRSEDTAVYYCATSGVGLHFGYFDYWGQGTQVTVSS
VL: QSVLTQPPSVSGAPGQRVTISCTGSSSNIGAHYDVHWYQQLPGTAPKLLIYGNSNRPSGVPDRFSGSKSGTSASLAITGLQAEDEADYYCQSYDSSLSGYVFGTGTKVTVL
Turning to B2, the % inhibition in test [1] is -13.1%.
